Results: doi:10.1101/2024.02.09.579451

Molecular target: T1, human Kir2.1 channel, wild type (Kir2.1-WT) (human), P63252
T1 chain: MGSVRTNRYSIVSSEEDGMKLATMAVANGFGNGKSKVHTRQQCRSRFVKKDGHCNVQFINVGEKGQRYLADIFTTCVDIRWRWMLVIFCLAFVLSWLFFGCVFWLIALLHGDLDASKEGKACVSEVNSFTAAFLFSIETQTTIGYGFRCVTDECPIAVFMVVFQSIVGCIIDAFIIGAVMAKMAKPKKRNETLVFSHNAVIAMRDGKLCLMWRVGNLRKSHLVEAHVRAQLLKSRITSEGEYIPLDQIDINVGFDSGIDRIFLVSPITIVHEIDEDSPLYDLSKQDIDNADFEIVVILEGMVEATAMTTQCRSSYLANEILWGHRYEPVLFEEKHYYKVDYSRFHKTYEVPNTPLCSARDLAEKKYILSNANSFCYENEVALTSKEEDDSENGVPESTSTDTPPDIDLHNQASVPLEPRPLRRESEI
Test: SEC-MALLS
Conditions: remark: other sources report otherwise

stoichiometry N: 4
B1: human Kir2.1 channel, wild type (Kir2.1-WT), P63252 1-427 (natural protein)
chain: T1 chain
